We go through 13 molecules from doi:10.1101/2025.11.05.686883 (bioRxiv, 2025).

The target in assay [1] is T1, HCV-1 sE1E2.Cut1+2.SPYΔN-His6 (Hepatitis C virus genotype 1a, isolate …, UniProt P26664, stabilised). Put plainly: BLI.
For assay [2], the target named is T2, H77 E1E2, wild type (Hepatitis C virus genotype 1a, isolate …). Put plainly: ELISA.
For assay [3], the target named is T1, HCV-1 sE1E2.Cut1+2.SPYΔN-His6. Nature of the assay: negative-stain electron microscopy.
The next assay addresses HCV-1 E1E2 (Hepatitis C virus genotype 1a, isolate …, UniProt P26664, strain). Nature of the assay: ELISA.
The target in assay [4] is T2, H77 E1E2, wild type. Nature of the assay: ELISA. This is another data set of the same source.
Assay [5] concerns the target T1, HCV-1 sE1E2.Cut1+2.SPYΔN-His6. Put plainly: BLI. This is another data set of the same source.

Like-named read-outs stand apart in the source and are kept apart here.

B1: RM3-26 (IgG) (antibody, V domains shown)
VH: QLQLQESGPGLVKPSETLSLTCIVSGGSISGYSWNWIRQPPGKGLEWIGNIFSGGDDANYNPSLKSRVTLSVDTSKNHFSLRLSSVTAADTAVYYCARHSAGFITGRYFELWGQGALVTVSS
VL: DIQMTQSPSSLSASLGDRVTITCRANQDISSSLAWYQQKPGKAPKPLIYYASNLESGVPSRFRGSGSGTEFTLTISSLQSEDFAVYYCQQYNSDPLTFGGGTKVEIK
As for B1, the binding result in assay [1] was “binds”.

B2: RM3-26 variant, light chain CDRL2 Y50 to alanine, wild-type heavy chain (antibody, V domains shown)
VH: QLQLQESGPGLVKPSETLSLTCIVSGGSISGYSWNWIRQPPGKGLEWIGNIFSGGDDANYNPSLKSRVTLSVDTSKNHFSLRLSSVTAADTAVYYCARHSAGFITGRYFELWGQGALVTVSS
VL: DIQMTQSPSSLSASLGDRVTITCRANQDISSSLAWYQQKPGKAPKPLIYAASNLESGVPSRFRGSGSGTEFTLTISSLQSEDFAVYYCQQYNSDPLTFGGGTKVEIK
For the molecule B2, the binding result in the assay with H77 E1E2, wild type [2] was “binds”.

B3: RM3-26 variant, light chain CDRL3 Y91 to alanine, wild-type heavy chain (antibody, V domains shown)
VH: QLQLQESGPGLVKPSETLSLTCIVSGGSISGYSWNWIRQPPGKGLEWIGNIFSGGDDANYNPSLKSRVTLSVDTSKNHFSLRLSSVTAADTAVYYCARHSAGFITGRYFELWGQGALVTVSS
VL: DIQMTQSPSSLSASLGDRVTITCRANQDISSSLAWYQQKPGKAPKPLIYYASNLESGVPSRFRGSGSGTEFTLTISSLQSEDFAVYYCQQANSDPLTFGGGTKVEIK
On to B3, for which the binding result with H77 E1E2, wild type [2] is “binds”.

B4: RM3-26 variant, heavy chain CDRH3 T100a to alanine, wild-type light chain (antibody, V domains shown)
VH: QLQLQESGPGLVKPSETLSLTCIVSGGSISGYSWNWIRQPPGKGLEWIGNIFSGGDDANYNPSLKSRVTLSVDTSKNHFSLRLSSVTAADTAVYYCARHSAGFIAGRYFELWGQGALVTVSS
VL: DIQMTQSPSSLSASLGDRVTITCRANQDISSSLAWYQQKPGKAPKPLIYYASNLESGVPSRFRGSGSGTEFTLTISSLQSEDFAVYYCQQYNSDPLTFGGGTKVEIK
Take B4: the binding result with H77 E1E2, wild type [2] is on record as “no binding (tested: 1 µg/mL (methods))”.

B5: RM3-26 variant, heavy chain CDRH3 Y100d to alanine, wild-type light chain (antibody, V domains shown)
VH: QLQLQESGPGLVKPSETLSLTCIVSGGSISGYSWNWIRQPPGKGLEWIGNIFSGGDDANYNPSLKSRVTLSVDTSKNHFSLRLSSVTAADTAVYYCARHSAGFITGRAFELWGQGALVTVSS
VL: DIQMTQSPSSLSASLGDRVTITCRANQDISSSLAWYQQKPGKAPKPLIYYASNLESGVPSRFRGSGSGTEFTLTISSLQSEDFAVYYCQQYNSDPLTFGGGTKVEIK
Regarding B5, in the assay with H77 E1E2, wild type [2], the binding result was “no binding (tested: 1 µg/mL (methods))”.

B6: RM3-26 variant, heavy chain CDRH3 R100c to alanine, wild-type light chain (antibody, V domains shown)
VH: QLQLQESGPGLVKPSETLSLTCIVSGGSISGYSWNWIRQPPGKGLEWIGNIFSGGDDANYNPSLKSRVTLSVDTSKNHFSLRLSSVTAADTAVYYCARHSAGFITGAYFELWGQGALVTVSS
VL: DIQMTQSPSSLSASLGDRVTITCRANQDISSSLAWYQQKPGKAPKPLIYYASNLESGVPSRFRGSGSGTEFTLTISSLQSEDFAVYYCQQYNSDPLTFGGGTKVEIK
In the case of B6, the binding result in the assay with H77 E1E2, wild type [2] was “binds”.

B7: RM3-26 variant, heavy chain CDRH1 Y32 to alanine, wild-type light chain (antibody, V domains shown)
VH: QLQLQESGPGLVKPSETLSLTCIVSGGSISGASWNWIRQPPGKGLEWIGNIFSGGDDANYNPSLKSRVTLSVDTSKNHFSLRLSSVTAADTAVYYCARHSAGFITGRYFELWGQGALVTVSS
VL: DIQMTQSPSSLSASLGDRVTITCRANQDISSSLAWYQQKPGKAPKPLIYYASNLESGVPSRFRGSGSGTEFTLTISSLQSEDFAVYYCQQYNSDPLTFGGGTKVEIK
Take B7: the binding result with H77 E1E2, wild type [2] is “binds”.

B8: K400 Fab (Fab, V domains shown)
VH: EVQLVQSGAEVKTPGASVRVSCTASGDTFTNHDIHWVRQAPGQGLEWMGGMNADSGKTAYAQKFQGRVSMTINTPTNTAYMDLSSLRSEDTALYYCARGDGLDFTLFGVAHYSYYNGVGVWGHGTTITVSS
VL: EIVMTQSPLALPVTPGEPASIFCKSSHSLLHYNGYTYLDWYLQKPGQSPQLLIYLGSNRASGVPDRFSGSGSGTEFTLKISRVEAEDVGVYYCMQALQTPITFGQGTRLEIK
Regarding B8, in assay [3], the binding result is reported as “binds”.

B9: K400 (antibody) (antibody, V domains shown)
VH: EVQLVQSGAEVKTPGASVRVSCTASGDTFTNHDIHWVRQAPGQGLEWMGGMNADSGKTAYAQKFQGRVSMTINTPTNTAYMDLSSLRSEDTALYYCARGDGLDFTLFGVAHYSYYNGVGVWGHGTTITVSS
VL: EIVMTQSPLALPVTPGEPASIFCKSSHSLLHYNGYTYLDWYLQKPGQSPQLLIYLGSNRASGVPDRFSGSGSGTEFTLKISRVEAEDVGVYYCMQALQTPITFGQGTRLEIK
Take B9: the binding result in the assay with HCV-1 E1E2 is given as “binds”; in the assay with H77 E1E2, wild type [4] it was “binds”.

B10: K595 Fab (Fab, V domains shown)
VH: EVQLLESGGGLVQPGGSLRLSCAASGFTFSNYVMTWARQAPGKGLEWVSSISDSGGNADYAHSVRGRFTISRDNSKNTLFLHMNSLRVEDTAVYHCAKALIAPGSLFRDQLLNWFDFWGQGTRVTVSS
VL: DIQMTQSPSTLSASVGDRVTITCRASQSIGNWLAWYQQKPGKAPKLLIYQASTLKSGVPSRFSGSGSGTEFSLTISSLQPDDLATYFCQQYNGSPLTFAGGTKVEIK
On to B10, for which the binding result in assay [3] was “binds”.

B11: K595 (antibody) (antibody, V domains shown)
VH: EVQLLESGGGLVQPGGSLRLSCAASGFTFSNYVMTWARQAPGKGLEWVSSISDSGGNADYAHSVRGRFTISRDNSKNTLFLHMNSLRVEDTAVYHCAKALIAPGSLFRDQLLNWFDFWGQGTRVTVSS
VL: DIQMTQSPSTLSASVGDRVTITCRASQSIGNWLAWYQQKPGKAPKLLIYQASTLKSGVPSRFSGSGSGTEFSLTISSLQPDDLATYFCQQYNGSPLTFAGGTKVEIK
Consider B11, for which, in the assay with HCV-1 E1E2, the binding result was “binds”.

B12: AR4A Fab (Fab, V domains shown)
VH: VQLLEQSGPEVKKPGDSLRISCKMSGDSLVTTWIGWVRQKPGQGLEWMGIINPGDSSTNIYPGDSATRYGPSFQGQVTISIDKSTSTAYLQWNNVKASDTGIYYCARHVPVPISGTFLWREREMHDFGYFDDWGQGTLVIVSS
VL: ELTLTQSPGTLSLSPGERATLSCRASQSVSNNYLAWYQQKPGQAPRLLIYGASSRATGIPDRFSGSGSGTGFTLIISRLEPEDFAVYYCQQYGSSSITFGQGTRLEIK
B12: in assay [3], the binding result was “binds”.

B13: AR4A (IgG) (antibody, V domains shown)
VH: VQLLEQSGPEVKKPGDSLRISCKMSGDSLVTTWIGWVRQKPGQGLEWMGIINPGDSSTNIYPGDSATRYGPSFQGQVTISIDKSTSTAYLQWNNVKASDTGIYYCARHVPVPISGTFLWREREMHDFGYFDDWGQGTLVIVSS
VL: ELTLTQSPGTLSLSPGERATLSCRASQSVSNNYLAWYQQKPGQAPRLLIYGASSRATGIPDRFSGSGSGTGFTLIISRLEPEDFAVYYCQQYGSSSITFGQGTRLEIK
On to B13, for which the binding result (in assay [5]; with HCV-1 E1E2) was “binds” in each case.
